# According to the supplement of paper PMC10567573:
# B1: ZNF263 (parent)
# chain: VPGTQVGQGGKLWDPSVQSCKEGL
# Variants of: B1
# Assay: protein stability index of a GFP-peptide fusion (GPS, HEK-293T) (PSI 1-6); higher = more stable
# Conditions: c terminus: a fixed tail appended
# 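Also: lentivirally expressed fusions sorted by FACS into six bins by GFP to DsRed ratio, PSI derived from sequencing read proportions per bin multiplied by bin number.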
row,Variant,protein stability index
1,VPGNQVGQGGKLWDPSVQSCKEGL,4.44
2,VPGPQVGQGGKLWDPSVQSCKEGL,4.29
3,VPGQQVGQGGKLWDPSVQSCKEGL,4.23
4,VPGRQVGQGGKLWDPSVQSCKEGL,3.92
5,VPGSQVGQGGKLWDPSVQSCKEGL,4.08
6,VPGVQVGQGGKLWDPSVQSCKEGL,4.57
7,VPGWQVGQGGKLWDPSVQSCKEGL,3.55
8,VPGYQVGQGGKLWDPSVQSCKEGL,4.08
9,VPGTAVGQGGKLWDPSVQSCKEGL,4
10,VPGTCVGQGGKLWDPSVQSCKEGL,4.04
11,VPGTDVGQGGKLWDPSVQSCKEGL,4.16
12,VPGTEVGQGGKLWDPSVQSCKEGL,3.94
13,VPGTFVGQGGKLWDPSVQSCKEGL,3.3
14,VPGTGVGQGGKLWDPSVQSCKEGL,4.27
15,VPGTHVGQGGKLWDPSVQSCKEGL,4.63
16,VPGTIVGQGGKLWDPSVQSCKEGL,4.16
17,VPGTKVGQGGKLWDPSVQSCKEGL,4.21
18,VPGTLVGQGGKLWDPSVQSCKEGL,4.17
19,VPGTMVGQGGKLWDPSVQSCKEGL,3.79
20,VPGTNVGQGGKLWDPSVQSCKEGL,4.23
21,VPGTPVGQGGKLWDPSVQSCKEGL,4.33
22,VPGTRVGQGGKLWDPSVQSCKEGL,4.2
23,VPGTSVGQGGKLWDPSVQSCKEGL,4.13
24,VPGTTVGQGGKLWDPSVQSCKEGL,4.2

row,Variant,protein stability index
1,VPGTVVGQGGKLWDPSVQSCKEGL,4.24
2,VPGTWVGQGGKLWDPSVQSCKEGL,4.15
3,VPGTYVGQGGKLWDPSVQSCKEGL,3.25
4,VPGTQAGQGGKLWDPSVQSCKEGL,3.97
5,VPGTQCGQGGKLWDPSVQSCKEGL,3.49
6,VPGTQDGQGGKLWDPSVQSCKEGL,4.3
7,VPGTQEGQGGKLWDPSVQSCKEGL,4.29
8,VPGTQFGQGGKLWDPSVQSCKEGL,4.65
9,VPGTQGGQGGKLWDPSVQSCKEGL,4.83
10,VPGTQHGQGGKLWDPSVQSCKEGL,3.51
11,VPGTQIGQGGKLWDPSVQSCKEGL,4.28
12,VPGTQKGQGGKLWDPSVQSCKEGL,4.69
13,VPGTQLGQGGKLWDPSVQSCKEGL,4.03
14,VPGTQMGQGGKLWDPSVQSCKEGL,4.29
15,VPGTQNGQGGKLWDPSVQSCKEGL,4.47
16,VPGTQPGQGGKLWDPSVQSCKEGL,4.26
17,VPGTQQGQGGKLWDPSVQSCKEGL,4.73
18,VPGTQRGQGGKLWDPSVQSCKEGL,4.55
19,VPGTQSGQGGKLWDPSVQSCKEGL,4.67
20,VPGTQTGQGGKLWDPSVQSCKEGL,4.7
21,VPGTQWGQGGKLWDPSVQSCKEGL,3.36
22,VPGTQYGQGGKLWDPSVQSCKEGL,3.82
23,VPGTQVAQGGKLWDPSVQSCKEGL,4.02
24,VPGTQVCQGGKLWDPSVQSCKEGL,4.29

row,Variant,protein stability index
1,VPGTQVDQGGKLWDPSVQSCKEGL,4.24
2,VPGTQVEQGGKLWDPSVQSCKEGL,4.41
3,VPGTQVFQGGKLWDPSVQSCKEGL,3.36
4,VPGTQVHQGGKLWDPSVQSCKEGL,3.78
5,VPGTQVIQGGKLWDPSVQSCKEGL,3.67
6,VPGTQVKQGGKLWDPSVQSCKEGL,3.81
7,VPGTQVLQGGKLWDPSVQSCKEGL,3.77
8,VPGTQVMQGGKLWDPSVQSCKEGL,3.91
9,VPGTQVNQGGKLWDPSVQSCKEGL,4.76
10,VPGTQVPQGGKLWDPSVQSCKEGL,3.78
11,VPGTQVQQGGKLWDPSVQSCKEGL,3.69
12,VPGTQVRQGGKLWDPSVQSCKEGL,3.68
13,VPGTQVSQGGKLWDPSVQSCKEGL,4.41
14,VPGTQVTQGGKLWDPSVQSCKEGL,3.33
15,VPGTQVVQGGKLWDPSVQSCKEGL,3.87
16,VPGTQVWQGGKLWDPSVQSCKEGL,4.06
17,VPGTQVYQGGKLWDPSVQSCKEGL,3.86
18,VPGTQVGAGGKLWDPSVQSCKEGL,4.41
19,VPGTQVGCGGKLWDPSVQSCKEGL,3.07
20,VPGTQVGDGGKLWDPSVQSCKEGL,4.71
21,VPGTQVGEGGKLWDPSVQSCKEGL,3.48
22,VPGTQVGFGGKLWDPSVQSCKEGL,4.17
23,VPGTQVGGGGKLWDPSVQSCKEGL,4.28
24,VPGTQVGHGGKLWDPSVQSCKEGL,4.12

row,Variant,protein stability index
1,VPGTQVGIGGKLWDPSVQSCKEGL,4.15
2,VPGTQVGKGGKLWDPSVQSCKEGL,4.11
3,VPGTQVGLGGKLWDPSVQSCKEGL,3.79
4,VPGTQVGMGGKLWDPSVQSCKEGL,3.97
5,VPGTQVGNGGKLWDPSVQSCKEGL,4.24
6,VPGTQVGPGGKLWDPSVQSCKEGL,4.07
7,VPGTQVGRGGKLWDPSVQSCKEGL,4.34
8,VPGTQVGSGGKLWDPSVQSCKEGL,3.71
9,VPGTQVGTGGKLWDPSVQSCKEGL,3.56
10,VPGTQVGVGGKLWDPSVQSCKEGL,4.04
11,VPGTQVGWGGKLWDPSVQSCKEGL,3.67
12,VPGTQVGYGGKLWDPSVQSCKEGL,3.21
13,VPGTQVGQAGKLWDPSVQSCKEGL,4.03
14,VPGTQVGQCGKLWDPSVQSCKEGL,3.73
15,VPGTQVGQDGKLWDPSVQSCKEGL,4.55
16,VPGTQVGQEGKLWDPSVQSCKEGL,4.61
17,VPGTQVGQFGKLWDPSVQSCKEGL,3.87
18,VPGTQVGQHGKLWDPSVQSCKEGL,4.34
19,VPGTQVGQIGKLWDPSVQSCKEGL,3.8
20,VPGTQVGQKGKLWDPSVQSCKEGL,4.25
21,VPGTQVGQLGKLWDPSVQSCKEGL,4.19
22,VPGTQVGQMGKLWDPSVQSCKEGL,3.42
